{
  "source": "paper PMC3177975",
  "conditions_in_all_cases": "amino acid activation with ATP; no EF-P stated",
  "key": {"purified protein": {"substrate": "NCCCC[C@H](N)C(=O)O", "test": "purified protein"}, "[1]": {"substrate": "NCCC[C@@H](N)CC(=O)O", "test": "steady-state kinetics of amino acid activation", "format": "biochemical, Escherichia coli"}, "[2]": {"substrate": "NCCC[C@H](N)CC(=O)O", "test": "steady-state kinetics of amino acid activation", "format": "biochemical, Escherichia coli"}},
  "data": [
    {"protein": "PoxA (Escherichia coli K-12) (protein) MSETASWQPSASIPNLLKRAAIMAEIRRFFADRGVLEVETPCMSQATVTDIHLVPFETRFVGPGHSQGMNLWLMTSPEYHMKRLLVAGCGPVFQLCRSFRNEEMGRYHNPEFTMLEWYRPHYDMYRLMNEVDDLLQQVLDCPAAESLSYQQAFLRYLEIDPLSADKTQLREVAAKLDLSNVADTEEDRDTLLQLLFTFGVEPNIGKEKPTFVYHFPASQASLAQISTEDHRVAERFEVYYKGIELANGFHELTDAREQQQRFEQDNRKRAARGLPQHPIDQNLIEALKVGMPDCSGVALGVDRLVMLALGAETLAEVIAFSVDRA", "values": [
      {"measurement": "Km", "setting": "purified protein", "value": "8.6 ± 1.2", "unit": "mM"},
      {"measurement": "kcat", "setting": "purified protein", "value": 0.25, "unit": "s⁻¹"},
      {"measurement": "kcat/Km", "setting": "purified protein", "value": 28.3, "unit": "M⁻¹ s⁻¹"},
      {"measurement": "Km", "setting": "[1]", "value": "213 ± 31", "unit": "µM"},
      {"measurement": "kcat", "setting": "[1]", "value": "0.6 ± 0.055", "unit": "s⁻¹"},
      {"measurement": "kcat/Km", "setting": "[1]", "value": 2820, "unit": "M⁻¹ s⁻¹"},
      {"measurement": "Km", "setting": "[2]", "value": "6.95 ± 1.894", "unit": "mM"},
      {"measurement": "kcat", "setting": "[2]", "value": 0.0467, "unit": "s⁻¹"},
      {"measurement": "kcat/Km", "setting": "[2]", "value": 6.67, "unit": "M⁻¹ s⁻¹"}
    ]},
    {"protein": "PoxA (Escherichia coli K-12; A298G) (protein) MSETASWQPSASIPNLLKRAAIMAEIRRFFADRGVLEVETPCMSQATVTDIHLVPFETRFVGPGHSQGMNLWLMTSPEYHMKRLLVAGCGPVFQLCRSFRNEEMGRYHNPEFTMLEWYRPHYDMYRLMNEVDDLLQQVLDCPAAESLSYQQAFLRYLEIDPLSADKTQLREVAAKLDLSNVADTEEDRDTLLQLLFTFGVEPNIGKEKPTFVYHFPASQASLAQISTEDHRVAERFEVYYKGIELANGFHELTDAREQQQRFEQDNRKRAARGLPQHPIDQNLIEALKVGMPDCSGVGLGVDRLVMLALGAETLAEVIAFSVDRA", "values": [
      {"measurement": "Km", "setting": "purified protein", "value": "0.344 ± 0.044", "unit": "mM"},
      {"measurement": "kcat", "setting": "purified protein", "value": 0.0633, "unit": "s⁻¹"},
      {"measurement": "kcat/Km", "setting": "purified protein", "value": 185, "unit": "M⁻¹ s⁻¹"},
      {"measurement": "Km", "setting": "[1]", "value": "414 ± 63", "unit": "µM"},
      {"measurement": "kcat", "setting": "[1]", "value": "0.283 ± 0.00833", "unit": "s⁻¹"},
      {"measurement": "kcat/Km", "setting": "[1]", "value": 683, "unit": "M⁻¹ s⁻¹"}
    ]}
  ]
}
